Key:
[1] = target: PD-1 on in vitro activated primary human T cells (human) (UniProt Q15116); assay: flow cytometry, PD-1 staining of activated T cells, media only
[2] = target: PD-1 on in vitro activated primary human T cells (human) (UniProt Q15116); assay: flow cytometry, PD-1 staining of activated T cells treated with IL-15 1 nM
[3] = target: PD-1 on in vitro activated primary human T cells (human) (UniProt Q15116); assay: flow cytometry, PD-1 staining of activated T cells treated with IL-15 10 nM
[4] = target: PD-1 on in vitro activated primary human T cells (human) (UniProt Q15116); assay: flow cytometry, PD-1 staining of activated T cells treated with IL-15 100 nM
[5] = target: PD-1 on in vitro activated primary human T cells (human) (UniProt Q15116); assay: flow cytometry, PD-1 staining of activated T cells treated with RV1 precomplexed with IL-15, 1 nM
[6] = target: PD-1 on in vitro activated primary human T cells (human) (UniProt Q15116); assay: flow cytometry, PD-1 staining of activated T cells treated with RV2 precomplexed with IL-15, 1 nM
[7] = target: PD-1 on in vitro activated primary human T cells (human) (UniProt Q15116); assay: flow cytometry, PD-1 staining of activated T cells treated with RV1 precomplexed with IL-15, 10 nM
[8] = target: PD-1 on in vitro activated primary human T cells (human) (UniProt Q15116); assay: flow cytometry, PD-1 staining of activated T cells treated with RV2 precomplexed with IL-15, 10 nM
[9] = target: PD-1 on in vitro activated primary human T cells (human) (UniProt Q15116); assay: flow cytometry, PD-1 staining of activated T cells treated with RV1 precomplexed with IL-15, 100 nM
[10] = target: PD-1 on in vitro activated primary human T cells (human) (UniProt Q15116); assay: flow cytometry, PD-1 staining of activated T cells treated with RV2 precomplexed with IL-15, 100 nM
[11] = target: PD-1 on in vitro activated primary human T cells (human) (UniProt Q15116); assay: flow cytometry, PD-1 staining of activated T cells treated with IL-15Rα-Fc precomplexed with IL-15, 1 nM
[12] = target: PD-1 on in vitro activated primary human T cells (human) (UniProt Q15116); assay: flow cytometry, PD-1 staining of activated T cells treated with IL-15Rα-Fc precomplexed with IL-15, 10 nM
[13] = target: PD-1 on in vitro activated primary human T cells (human) (UniProt Q15116); assay: flow cytometry, PD-1 staining of activated T cells treated with IL-15Rα-Fc precomplexed with IL-15, 100 nM
[14] = target: PD-1 on in vitro activated primary human T cells (human) (UniProt Q15116); assay: flow cytometry, PD-1 staining of Ki-67 positive activated T cells, average over the non-PD-1-binding treatments

Sequence of PD-1 on in vitro activated primary human T cells (human) (Q15116 25-288): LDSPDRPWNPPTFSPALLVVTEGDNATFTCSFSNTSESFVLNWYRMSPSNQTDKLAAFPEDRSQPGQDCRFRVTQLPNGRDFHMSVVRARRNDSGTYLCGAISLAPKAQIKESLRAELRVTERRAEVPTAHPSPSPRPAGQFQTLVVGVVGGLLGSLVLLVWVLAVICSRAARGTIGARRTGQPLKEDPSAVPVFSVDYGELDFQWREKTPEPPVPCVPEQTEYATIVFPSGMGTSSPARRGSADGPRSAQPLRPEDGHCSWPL

MFI of PD-1 in Ki-67 positive CD4+ T cells [1]: 4020 MFI
MFI of PD-1 in Ki-67 positive CD8+ T cells [1]: 2250 MFI
MFI of PD-1 in Ki-67 positive CD4+ T cells [2]: 4870 MFI
MFI of PD-1 in Ki-67 positive CD8+ T cells [2]: 2050 MFI
MFI of PD-1 in Ki-67 positive CD4+ T cells [3]: 6440 MFI
MFI of PD-1 in Ki-67 positive CD8+ T cells [3]: 3190 MFI
MFI of PD-1 in Ki-67 positive CD4+ T cells [4]: 6550 MFI
MFI of PD-1 in Ki-67 positive CD8+ T cells [4]: 3220 MFI
MFI of PD-1 in Ki-67 positive CD4+ T cells [5]: 4100 MFI
MFI of PD-1 in Ki-67 positive CD8+ T cells [5]: 1870 MFI
MFI of PD-1 in Ki-67 positive CD4+ T cells [6]: 4200 MFI
MFI of PD-1 in Ki-67 positive CD8+ T cells [6]: 1920 MFI
MFI of PD-1 in Ki-67 positive CD4+ T cells [7]: 4620 MFI
MFI of PD-1 in Ki-67 positive CD8+ T cells [7]: 1890 MFI
MFI of PD-1 in Ki-67 positive CD4+ T cells [8]: 5070 MFI
MFI of PD-1 in Ki-67 positive CD8+ T cells [8]: 2020 MFI
MFI of PD-1 in Ki-67 positive CD4+ T cells [9]: 4830 MFI
MFI of PD-1 in Ki-67 positive CD8+ T cells [9]: 2370 MFI
MFI of PD-1 in Ki-67 positive CD4+ T cells [10]: 5840 MFI
MFI of PD-1 in Ki-67 positive CD8+ T cells [10]: 2820 MFI
MFI of PD-1 in Ki-67 positive CD4+ T cells [11]: 4280 MFI
MFI of PD-1 in Ki-67 positive CD8+ T cells [11]: 1690 MFI
MFI of PD-1 in Ki-67 positive CD4+ T cells [12]: 4480 MFI
MFI of PD-1 in Ki-67 positive CD8+ T cells [12]: 2120 MFI
MFI of PD-1 in Ki-67 positive CD4+ T cells [13]: 4380 MFI
MFI of PD-1 in Ki-67 positive CD8+ T cells [13]: 2110 MFI
MFI of PD-1 staining, average, CD4+ cells [14]: 4830 MFI
MFI of PD-1 staining, average, CD8+ cells [14]: 2190 MFI
B1: PD-1 detection antibody (clone EH12.2H7) (antibody, from another filing, V domains shown)
VH: QVQLQQSGAELAKPGASVQMSCKASGYSFTSSWIHWVKQRPGQGLEWIGYIYPSTGFTEYNQKFKDKATLTADKSSSTAYMQLSSLTSEDSAVYYCARWRDSSGYHAMDYWGQGTSVTVSS
VL: DIVLTQSPASLTVSLGQRATISCRASQSVSTSGYSYMHWYQQKPGQPPKLLIKFGSNLESGIPARFSGSGSGTDFTLNIHPVEEEDTATYYCQHSWEIPYTFGGGTKLEIK
